Assay [1] addresses T1, CA/09 H1 HA: hemagglutinin of A/California/7/2009 (H1N1) (Influenza A virus A/California/07/2009 …, UniProt C3W5X2, strain).
T1 construct: source: insect cells, expressed and purified (Supplementary Methods)
Nature of the assay: ELISA. Particulars: one partner purified. On the technique in general: An ELISA detects its analyte on a solid surface through an enzyme-linked reagent.

In assay [2] the target is BS/07 H1 HA: hemagglutinin of A/Brisbane/59/2007(H1N1) (Influenza A virus A/Brisbane/59/2007 …, strain). Put plainly: ELISA.
In assay [3] the target is T1, CA/09 H1 HA: hemagglutinin of …. Put plainly: SPR. To be noted: both partners purified.

B1: H123#437 scFv (scFv, V domains shown)
VH: QVQLVQSGAEVKKPGSSVKVSCTSSEFMFPAFAISWVRQAPGQGLEWLGGISPMFDHPNYAQKFQGRVTITADQSTRTAYMDLRSLRSEDTAVYYCARSPTYLPSGVFDHWGQGTLVTVSS
VL: QPGLTQPPSVSKGLRQTATLTCTGNSNNVGNQGAAWLQQHQGHPPKLLSYRNNDRPSGISERFSASRSGNTASLTITGLQPEDEADYYCSTWDSSLSAVVFGGGTKLTVL
notes: source: E. coli ER2738, phage-free soluble scFv in filtered culture supernatant; not shown: E-tag, C-terminal, kept
With B1, the “normalized binding affinity (relative to F10 scFv)” value in assay [1] was found to be 5.2.

B2: H123#437 IgG (antibody, V domains shown)
VH: B1 VH
VL: B1 VL
Usually Kd stands for the concentration at which binding is half-saturated. A high value points to lower affinity. As usually defined, the koff is a measure of how fast the partners let go of each other. In general, kon refers to the second-order rate constant of association. Read a high kon as fast association. As for B2, the binding result in assay [2] (both partners purified) is given as “binds”. In assay [3], this molecule gave a dissociation constant Kd of 0.091 nM, an off-rate (koff) of 3.52e-05 s⁻¹ and a kon of 386000 M⁻¹ s⁻¹.

B3: F10 IgG (antibody, V domains shown)
VH: QVQLVQSGAEVKKPGSSVKVSCTSSEVTFSSFAISWVRQAPGQGLEWLGGISPMFGTPNYAQKFQGRVTITADQSTRTAYMDLRSLRSEDTAVYYCARSPSYICSGGTCVFDHWGQGTLVTVSS
VL: B1 VL
As for B3, the binding result in assay [2] (both partners purified) is “binds”. In assay [3], this molecule gave a Kd of 0.046 nM, a koff of 1.11e-05 s⁻¹ and an on-rate (kon) of 240000 M⁻¹ s⁻¹.

B4: F10 scFv (scFv, V domains shown)
VH: B3 VH
VL: B1 VL
notes: not shown: E-tag, C-terminal, kept
Consider B4, for which the binding result in assay [2] (one partner purified) is reported as “binds”.

The record behind these values is paper PMC4601012 (Scientific Reports, 2015).
